Laboratory results: paper PMC3148490 (Cell metabolism, 2011)
Values belong to the binder of their own block, whether it stands above or below them.

Assays:
[1] = target: T1, t-SNAREs: heterodimeric complex of syntaxin-1 and SNAP-25, membrane-integrated in liposomes (UniProt P32851 1-288; P60881 1-206); test: co-sedimentation
[2] = target: T1, t-SNAREs: heterodimeric complex of …; test: co-sedimentation; remark: listed apart in the source

T1 sequence (P32851 whole entry, chain 1 of 2): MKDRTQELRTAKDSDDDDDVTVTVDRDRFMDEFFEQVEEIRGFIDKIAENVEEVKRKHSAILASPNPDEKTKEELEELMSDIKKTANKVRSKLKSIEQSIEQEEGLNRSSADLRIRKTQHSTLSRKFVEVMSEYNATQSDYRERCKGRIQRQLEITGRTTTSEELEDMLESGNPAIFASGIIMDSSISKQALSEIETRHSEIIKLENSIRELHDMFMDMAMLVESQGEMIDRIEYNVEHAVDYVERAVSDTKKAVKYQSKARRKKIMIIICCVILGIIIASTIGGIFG
T1 sequence (P60881 whole entry, chain 2 of 2): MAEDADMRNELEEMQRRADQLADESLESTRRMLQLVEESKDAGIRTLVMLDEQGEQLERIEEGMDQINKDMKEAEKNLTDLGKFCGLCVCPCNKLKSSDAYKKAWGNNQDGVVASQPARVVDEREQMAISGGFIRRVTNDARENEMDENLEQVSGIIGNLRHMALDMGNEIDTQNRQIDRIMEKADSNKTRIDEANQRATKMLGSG

Kd [1]: 177 nM
B1: MBP-DAMH (MBP fusion protein of the CAPS DAMH domain) (domain or fragment, UniProt Q62717 859-1073, looked up)
chain: ENVGRLITPAKKLEDTIRLAELVIEVLQQNEEHHAEAFAWWSDLMVEHAETFLSLFAVDMDAALEVQPPDTWDSFPLFQLLNDFLRTDYNLCNGKFHKHLQDLFAPLVVRYVDLMESSIAQSIHRGFERESWEPVNNGSGTSEDLFWKLDALQTFIRDLHWPEEEFGKHLEQRLKLMASDMIESCVKRTRIAFEVKLQKTSRSTDFRVPQSICTM

fold binding against syntaxin-1 or SNAP-25 alone [2]: 2 fold
B2: GST-DAMH (GST fusion protein of CAPS(859-1073), the DAMH domain) (domain or fragment, UniProt Q62717 859-1073, looked up)
chain: B1 chain
